Measured values published in patent publication US20210403506A1 (XDCEXPLORER SHANGHAI, published 2021).
Square brackets hold non-standard residues; d marks the D form. Primed or numbered codes have the meaning given here. Ends that are not written are not given here. * marks the point of attachment. Pro(trans-4-Ph) = O=C(O)[C@@H]1C[C@@H](c2ccccc2)CN1; DiMe = N,N-dimethyl (N-terminal dimethylation); Bpa = N[C@@H](Cc1ccc(C(=O)c2ccccc2)cc1)C(=O)O; dTyr(3-F) = N[C@H](Cc1ccc(O)c(F)c1)C(=O)O; PEG8 = NCCOCCOCCOCCOCCOCCOCCOCCOCCC(=O)O; Phe(4-Cl) = N[C@@H](Cc1ccc(Cl)cc1)C(=O)O; Pro(diF)″ = difluoroproline (DiFluorPro); Phe(4-Me) = Cc1ccc(C[C@H](N)C(=O)O)cc1; 1Nal = N[C@@H](Cc1cccc2ccccc12)C(=O)O; 2Nal = N[C@@H](Cc1ccc2ccccc2c1)C(=O)O; dNMeY = CN[C@H](Cc1ccc(O)cc1)C(=O)O; Hydrocinnamoyl = O=C(CCc1ccccc1)*; Palmitoyl = CCCCCCCCCCCCCCCC(=O)*; Hyp = O=C(O)[C@@H]1C[C@@H](O)CN1; NMeF = CN[C@@H](Cc1ccccc1)C(=O)O; 3‑phenylpropyl = c1ccc(CCC*)cc1; Tic = O=C(O)[C@@H]1Cc2ccccc2CN1; NMeL = CN[C@@H](CC(C)C)C(=O)O; NMeS = CN[C@@H](CO)C(=O)O; Thz = O=C(O)[C@@H]1CSCN1; Hexanoyl = CCCCCC(=O)*; βAla = NCCC(=O)O

Molecular target: T1, human Chemokine like receptor 1 (human, UniProt Q99788 1-373)
T1 sequence (looked up): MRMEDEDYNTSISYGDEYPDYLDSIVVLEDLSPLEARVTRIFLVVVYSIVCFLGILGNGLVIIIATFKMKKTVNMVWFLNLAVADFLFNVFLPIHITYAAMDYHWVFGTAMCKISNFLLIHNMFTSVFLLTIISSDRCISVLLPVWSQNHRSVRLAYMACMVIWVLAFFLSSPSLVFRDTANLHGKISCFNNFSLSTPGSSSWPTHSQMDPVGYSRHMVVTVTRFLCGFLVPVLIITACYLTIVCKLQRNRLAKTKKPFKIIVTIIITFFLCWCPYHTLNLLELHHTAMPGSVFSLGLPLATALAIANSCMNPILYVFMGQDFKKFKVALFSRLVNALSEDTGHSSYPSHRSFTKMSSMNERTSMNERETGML
Assay: cell-based or functional assay

Row | Binder | EC50 (µM), activation of Tango CMKLR1-bla U2OS cells
1 | [dTyr(3-F)]F[NMeL][Pro(diF)″][dS]Q[2Nal][dA][Tic][NMeS]-OH [YW-226] | 0.0033 µM
2 | [dY][NMeF][NMeL]P[dS]QF[dA][Tic]S-OH (N-terminus assumed; SMILES CC(C)C[C@@H](C(=O)N1CCC[C@H]1C(=O)N[C@H](CO)C(=O)N[C@@H](CCC(N)=O)C(=O)N[C@@H](Cc1ccccc1)C(=O)N[C@H](C)C(=O)N1Cc2ccccc2C[C@H]1C(=O)N[C@@H](CO)C(=O)O)N(C)C(=O)[C@H](Cc1ccccc1)N(C)C(=O)[C@H](N)Cc1ccc(O)cc1) [YW-105] | 0.0106 µM
3 | [dY]FL[S‑Pip][dS]QF[dA][Tic]S [YW-96] | 0.039 µM
4 | Hexanoyl-[dY]F[NMeL]P[dS]QF[dA][Tic]S [YW-193] | 0.0014 µM
5 | [dNMeY]F[NMeL]P[dS]Q[2Nal][dA][Tic][NMeS] (not fully specified (residue 4); printed as (NMe-D-Tyr)-Phe-(NMe-Leu)-Pro(tran-4F)-(D-Ser)-Gln-(Nal-2)-(D-Ala)-Tic-(NMe-Ser)) [YW-220] | 0.00067 µM
6 | [dY]F[NMeL][Thz][dS]QF[dA][Tic]S-OH (N-terminus assumed; SMILES CC(C)C[C@@H](C(=O)N1CSC[C@H]1C(=O)N[C@H](CO)C(=O)N[C@@H](CCC(N)=O)C(=O)N[C@@H](Cc1ccccc1)C(=O)N[C@H](C)C(=O)N1Cc2ccccc2C[C@H]1C(=O)N[C@@H](CO)C(=O)O)N(C)C(=O)[C@H](Cc1ccccc1)NC(=O)[C@H](N)Cc1ccc(O)cc1) [YW-121] | 0.0007 µM
7 | {4‑(trifluoromethyl)benzoyl}-[dY]F[NMeL]P[dS]QF[dA][Tic]S-OH [YW-195] | 0.0008 µM
8 | [dY]F[NMeL][Pro(trans-4-Ph)][dS]QF[dA][Tic]S [YW-215] | 0.0048 µM
9 | [dY][NMeF]LP[dS]QF[dA][Tic]S-OH (N-terminus assumed; SMILES CC(C)C[C@H](NC(=O)[C@H](Cc1ccccc1)N(C)C(=O)[C@H](N)Cc1ccc(O)cc1)C(=O)N1CCC[C@H]1C(=O)N[C@H](CO)C(=O)N[C@@H](CCC(N)=O)C(=O)N[C@@H](Cc1ccccc1)C(=O)N[C@H](C)C(=O)N1Cc2ccccc2C[C@H]1C(=O)N[C@@H](CO)C(=O)O) [YW-104] | 0.08 µM
10 | [dY]F[NMeL][Hyp][dS]QF[dA][Tic]S [YW-198] | 0.0053 µM
11 | {3‑phenylpropyl}-[dY]F[NMeL]P[dS]QF[dA][Tic]S-OH [YW-207] | 0.00092 µM
12 | [dY]F[NMeL]P[dS]QF[dA]XS-NH2 (not fully specified (residue 9); printed as (D-Tyr)-Phe-(NMe-Leu)-Pro-(D-Ser)-Gln-Phe-(D-Ala)-Tic-Ser-NH2) [YW-190] | 0.0027 µM
13 | [dTyr(3-F)]F[NMeL]P[dS]Q[2Nal][dA][Tic]S (not fully specified (residue 4); printed as [D-Tyr(3F)]-Phe-(NMe-Leu)-Pro(tran-4F)-(D-Ser)-Gln-(Nal-2)-(D-Ala)-Tic-Ser) [YW-222] | 0.00034 µM
14 | {Palmitoyl-PEG8}-[βAla][βAla][dNMeY]F[NMeL][Pro(trans-4-Ph)][dS]Q[2Nal][dA][Tic]S [YW-217] | 0.0033 µM
15 | DiMe-[dY]F[NMeL]P[dS]QF[dA][Tic]S [YW-192] | 0.0026 µM
16 | [dY]FLP[dS]QF[dA][Tic][NMeS]-OH (N-terminus assumed; SMILES CC(C)C[C@H](NC(=O)[C@H](Cc1ccccc1)NC(=O)[C@H](N)Cc1ccc(O)cc1)C(=O)N1CCC[C@H]1C(=O)N[C@H](CO)C(=O)N[C@@H](CCC(N)=O)C(=O)N[C@@H](Cc1ccccc1)C(=O)N[C@H](C)C(=O)N1Cc2ccccc2C[C@H]1C(=O)N(C)[C@@H](CO)C(=O)O) [YW-110] | 0.013 µM
17 | [dTyr(3-F)]F[NMeL]P[dS]Q[2Nal][dA][Tic][NMeS] (not fully specified (residue 4); printed as (D-Tyr(3F))-Phe-(NMe-Leu)-Pro(tran-4F)-(D-Ser)-Gln-(Nal-2)-(D-Ala)-Tic-(NMe-Ser)) [YW-221] | 0.00068 µM

Row | Binder | EC50 (µM), activation of Tango CMKLR1-bla U2OS cells
18 | [dY][1Nal][NMeL]P[dS]QF[dA][Tic]S [YW-199] | 0.0029 µM
19 | [dF]FLP[dS]QF[dA][Tic]S-OH (N-terminus assumed; SMILES CC(C)C[C@H](NC(=O)[C@H](Cc1ccccc1)NC(=O)[C@H](N)Cc1ccccc1)C(=O)N1CCC[C@H]1C(=O)N[C@H](CO)C(=O)N[C@@H](CCC(N)=O)C(=O)N[C@@H](Cc1ccccc1)C(=O)N[C@H](C)C(=O)N1Cc2ccccc2C[C@H]1C(=O)N[C@@H](CO)C(=O)O) [YW-97] | 0.05 µM
20 | [dY]F[NMeL]P[dS]QF[dA][Phe(4-Cl)]S [YW-206] | 0.009 µM
21 | [dY]F[NMeL][Thz][dS]Q[2Nal][dA][Tic]S-OH [YW-122] | 0.0006 µM
22 | GG[dY]F[NMeL]P[dS]Q[2Nal][dA][Tic]S (not fully specified (residue 6, N-terminus)) [YW-223] | 0.00033 µM
23 | [dNMeY]F[NMeL][Pro(4Ph)][dS]Q[2Nal][dA][Tic]S [YW-216] | 0.0013 µM
24 | [dNMeY]FLP[dS]QF[dA][Tic]S-OH (N-terminus assumed; SMILES CN[C@H](Cc1ccc(O)cc1)C(=O)N[C@@H](Cc1ccccc1)C(=O)N[C@@H](CC(C)C)C(=O)N1CCC[C@H]1C(=O)N[C@H](CO)C(=O)N[C@@H](CCC(N)=O)C(=O)N[C@@H](Cc1ccccc1)C(=O)N[C@H](C)C(=O)N1Cc2ccccc2C[C@H]1C(=O)N[C@@H](CO)C(=O)O) [YW-103] | 0.0094 µM
25 | Hydrocinnamoyl-[dY]F[NMeL]P[dS]QF[dA][Tic]S-OH (SMILES CC(C)C[C@@H](C(=O)N1CCC[C@H]1C(=O)N[C@H](CO)C(=O)N[C@@H](CCC(N)=O)C(=O)N[C@@H](Cc1ccccc1)C(=O)N[C@H](C)C(=O)N1Cc2ccccc2C[C@H]1C(=O)N[C@@H](CO)C(=O)O)N(C)C(=O)[C@H](Cc1ccccc1)NC(=O)[C@@H](Cc1ccc(O)cc1)NC(=O)CCc1ccccc1) [YW-111] | 0.002 µM
26 | [dY][Bpa][NMeL]P[dS]QF[dA][Tic]S [YW-201] | 0.076 µM
27 | [dY][Phe(4-Me)][NMeL]P[dS]QF[dA][Tic]S [YW-202] | 0.0064 µM
28 | [dY][2Nal][NMeL]P[dS]QF[dA][Tic]S [YW-200] | 0.019 µM
29 | [dNMeY]F[NMeL][Pro(diF)″][dS]Q[2Nal][dA][Tic][NMeS]-OH [YW-225] | 0.00064 µM
30 | {2‑cyclohexylacetyl}-[dY]F[NMeL]P[dS]QF[dA][Tic]S [YW-194] | 0.0012 µM
31 | [dY]F[NMeL][Pro(diF)][dS]Q[2Nal][dA][Tic][NMeS] [YW-224] | 0.0013 µM
32 | [dY]F[NMeL]P[dS]QF[dA][Phe(4-Me)]S [YW-205] | 0.0062 µM
33 | [dY][Phe(4-Cl)][NMeL]P[dS]QF[dA][Tic]S [YW-203] | 0.0082 µM
34 | [dY]F[NMeL]P[dT]QF[dA][Tic]S [YW-204] | 0.062 µM
